In US6998239 (dated 2006):

T1: human CCX CKR with N-terminal Flag epitope, stably expressed on HEK293 cells (UniProt Q9NPB9 1-350)
T1 chain: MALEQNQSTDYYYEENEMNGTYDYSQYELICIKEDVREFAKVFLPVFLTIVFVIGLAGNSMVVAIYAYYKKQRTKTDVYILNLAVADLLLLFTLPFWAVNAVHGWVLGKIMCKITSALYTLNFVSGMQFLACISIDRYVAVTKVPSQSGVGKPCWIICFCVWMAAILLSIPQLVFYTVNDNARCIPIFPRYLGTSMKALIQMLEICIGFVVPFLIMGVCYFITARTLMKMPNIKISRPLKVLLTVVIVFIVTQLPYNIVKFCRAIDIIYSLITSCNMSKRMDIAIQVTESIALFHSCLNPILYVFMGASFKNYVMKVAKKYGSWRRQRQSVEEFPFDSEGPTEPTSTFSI

B1: murine TECK (ligand)
chain: QGAFEDCCLGYQHRIKWNVLRHARNYHQQEVSGSCNLRAVRFYFRQKVVCGNPEDMNVKRAMRILTARKRLVHWKSASDSQTERKKSNHMKSKVENPNSTSVRSATLGHPRMVMMPRKTNN
B2: murine ELC (ligand)
chain: GANDAEDCCLSVTQRPIPGNIVKAFRYLLNEDGCRVPAVVFTTLRGYQLCAPPDQPWVDRIIRRLKKSSAKNKGNSTRRSPVS
B3: mMIP-1gamma (murine macrophage inflammatory protein 1 gamma) (ligand)
chain: QITHATETKEVQSSLKAQQGLEIEMFHMGFQDSSDCCLSYNSRIQCSRFIGYFPTSGGCTRPGIIFISKRGFQVCANPSDRRVQRCIERLEQNSQPRTYKQ
B4: human SLC (secondary lymphoid-tissue chemokine) (ligand)
chain: SDGGAQDCCLKYSQRKIPAKVVRSYRKQEPSLGCSIPAILFLPRKRSQAELCADPKELWVQQLMQHLDKTPSPQKPAQGCRKDRGASKTGKKGKGSKGCKRTERSQTPKGP
B5: vMIPII (viral macrophage inflammatory protein II) from human Kaposi's sarcoma herpesvirus HHV8 (ligand)
chain: LGASWHRPDKCCLGYQKRPLPQVLLSSWYPTSQLCSKPGVIFLTKRGRQVCADKSKDWVKKLMQQLPVTAR
B6: human TECK (thymus expressed chemokine) (ligand)
chain: QGVFEDCCLAYHYPIGWAVLRRAWTYRIQEVSGSCNLPAAIFYLPKRHRKVCGNPKSREVQRAMKLLDARNKVFAKLHHNTQTFQAGPHAVKKLSSGNSKLSSSKFSNPISSSKRNVSLLISANSGL
modifications: 125I label where used as radioligand
B7: MCP-3 (ligand)
chain: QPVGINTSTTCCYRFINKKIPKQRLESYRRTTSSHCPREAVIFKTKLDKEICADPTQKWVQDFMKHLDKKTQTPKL
B8: human ELC (EBI1 ligand chemokine) (ligand)
chain: GTNDAEDCCLSVTQKPIPGYIVRNFHYLLIKDGCRVPAVVFTTLRGRQLCAPPDQPWVERIIQRLQRTSAKMKRRSS
modifications: 125I label where used as radioligand
B9: murine SLC (ligand)
chain: SDGGGQDCCLKYSQKKIPYSIVRGYRKQEPSLGCPIPAILFSPRKHSKPELCANPEEGWVQNLMRRLDQPPAPGKQSPGCRKNRGTSKSGKKGKGSKGCKRTEQTQPSRG

Target: T1, human CCX CKR with N-terminal Flag …
Assay: 125I-ELC competition binding

Compared with B1, B2 is 2-fold lower in IC50: 2 nM for the first, 1 nM for the second. The second is the more potent here.

Compared with B3, B4 is 5.8-fold lower in IC50: 70 nM for the first, 12 nM for the second.

Compared with B5, B6 is 13-fold lower in IC50: 90 nM for the first, 7 nM for the second. The second is the more potent here.

Going from B7 to B8, the IC50 falls from over 2000 nM to 6 nM.

Work on B9 yielded an IC50 of 4 nM.
